The target of assay [1] is T1, CD137 expressed on the cell surface of HT1080_4-1BB cells (human, UniProt Q07011 24-255). Briefly: cell-based or functional assay.
In assay [2] the target is T1, CD137 expressed on the cell surface of …. Kind of assay: HT1080_4-1BB cells, imaging. Note: test concentration or dose not given here.
The target in assay [3] is T2, CD137 protein (His-tagged, Sino Biological Inc. 10041-H08H) (human, UniProt Q07011 24-186).
T2 construct: bought protein coated on ELISA plates; also called 4-1BB; TNFRSF9; not shown: His tag
Kind of assay: ELISA, coated His-tagged CD137. Note: test concentration or dose not given here. In general terms: An ELISA detects its analyte on a solid surface through an enzyme-linked reagent.

In the next assay the target is human 4-1BB (CD137) (human, UniProt Q07011 24-255). Kind of assay: cell-based or functional assay.
Throughout, for Functional assay Cross-linked by F(ab′)2 fragment IL-8: test concentration or dose not given here.
Throughout, for Functional assay IL-8: test concentration or dose not given here.

human 4-1BB (CD137), sequence (Q07011 24-255): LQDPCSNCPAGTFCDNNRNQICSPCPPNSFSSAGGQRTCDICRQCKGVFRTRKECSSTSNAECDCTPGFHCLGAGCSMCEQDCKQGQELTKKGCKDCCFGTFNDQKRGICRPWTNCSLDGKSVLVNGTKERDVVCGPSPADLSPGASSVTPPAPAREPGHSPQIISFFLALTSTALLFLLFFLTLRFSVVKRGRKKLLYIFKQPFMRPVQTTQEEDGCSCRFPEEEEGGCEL
T1 sequence (Q07011 24-255): as above

B1: P018.S.14.A.H01 (antibody, V domains shown)
VH: QSVEESGGRLVTPGTPLTLTCTVSGFSLSDYYMTWVRQAPGKGLEYIGIMSGSGSTYYASWAKGRFTISKTSSTTLELKITSPTTEDTAIYFCARDGDYAGWGYATGAFDPWGPGTLVTVSS
VL: AAVLTQTPSPVSAAVGGTVTISCQASQSVVGNSLLSWFQKKPGQPPKLLIYSASSLASGVPSRFKGSGSGTQFTLTISDLESDDAATYYCTGRYNSDTDTFVFGGGTEVVVK
notes: V regions on human Ig constant parts; also called AB137_12
As to B1, in assay [1], the “Functional assay Cross-linked by F(ab′)2 fragment IL-8” value (from here on “Functional assay Cross-linked”) amounted to 2.19 abs. corr and the “Functional assay IL-8” value was 2.02 abs. corr. Besides, the “Cellular binding assay [RFU]” value in assay [2] worked out at 6 RFU. Further, the “ELISA [abs. corr.]” value in assay [3] came out at 2.97 abs. corr.

B2: P018.S.14.A.H01 (antibody, V domains shown)
VH: QSVEESGGRLVTPGTPLTLTCTVSGFSLSDYYMTWVRQAPGKGLEYIGIMSGSGSTYYASWAKGRFTISKTSSTTLELKITSPTTEDTAIYFCARDGDYAGWGYATGAFDPWGPGTLVTVSS
VL: AAVLTQTPSPVSAAVGGTVTISCQASQSVVGNSLLSWFQKKPGQPPKLLIYSASSLASGVPSRFKGSGSGTQFTLTISDLESDDAATYYCTGRYNSDTDTFVFGGGTEVVVK
Regarding B2, the “EC 50 [ng/mL] of agonistic function (IL-8 release from CD137-overexpressing HT1080 cells, antibody cross-linked by F(ab')2 goat anti-human IgG)” value (“EC 50 [ng/mL] of agonistic function” below) with human 4-1BB (CD137) is 5820 ng/mL.

B3: P018.S.14.A.A04 (antibody, V domains shown)
VH: QSLEESGGRLVTPGTPLTLTCTVSGFSLNDYWMSWVRQAPGKGLEWIGYIDVGGSLYYASWAKGRFTISRTSTTVDLKMTSLTTEDTATYFCARGGLTYGFDLWGPGTLVTVSS
VL: DIVMTQTPASVSEPVGGTVTINCQASEDISSYLAWYQQKPGQRPKRLIYGASDLASGVPSRFSASGSGTEYALTISDLESADAATYYCHYYATISGLGVAFGGGTEVVVK
In the case of B3, the “EC 50 [ng/mL] of agonistic function” value with human 4-1BB (CD137) is 6790 ng/mL.

B4: P018.S.13.A.A06 (antibody, V domains shown)
VH: QSVEESGGRLVTPGTPLTLTCTASGFTISDFHVTWVRQAPGKGLEWIGTIITSASTTAYATWARGRFTISKSSTTVNLKIVSPTTEDTATYFCARSTYTDTSGYYFDFWGQGTLVTVSS
VL: AQVLTQTASPVSAAVGGTVIINCQSSQSIYNGNRLSWYQQKPGQPPKLLIYSASTLASGVSSRFKGSGSGTQFTLAISDVQSDDAATYYCLGSYDCDSADCFAFGGGTEVVVE
notes: V regions on human Ig constant parts; also called AB137_5
Regarding B4, in assay [1], the “Functional assay Cross-linked” value worked out at 1.71 abs. corr and the “Functional assay IL-8” value was -0.153 abs. corr. Besides, the “Cellular binding assay [RFU]” value in assay [2] came out at 38 RFU. Besides, the “ELISA [abs. corr.]” value in assay [3] was determined as 3.39 abs. corr.

B5: P018.S.13.A.A06 (antibody, V domains shown)
VH: QSVEESGGRLVTPGTPLTLTCTASGFTISDFHVTWVRQAPGKGLEWIGTIITSASTTAYATWARGRFTISKSSTTVNLKIVSPTTEDTATYFCARSTYTDTSGYYFDFWGQGTLVTVSS
VL: AQVLTQTASPVSAAVGGTVIINCQSSQSIYNGNRLSWYQQKPGQPPKLLIYSASTLASGVSSRFKGSGSGTQFTLAISDVQSDDAATYYCLGSYDCDSADCFAFGGGTEVVVE
As for B5, in the assay with human 4-1BB (CD137), the “EC 50 [ng/mL] of agonistic function” value was 7790 ng/mL.

B6: P018.S.13.A.A05 (antibody, V domains shown)
VH: QSLEESGGRLVTPGTPLTLTCTASGFSLSRYDMSWVRQAPGKGLEYIGVISSSGGTNYANWAKGRFTISKTSTTVDLKITSPTTEDTATYFCAREGDYWDFNLWGPGTLVTVSS
VL: AQVLTQTPSSVSAAVGGTVTINCQASQSISNLLAWYQQKPGQPPKLLIYGASTLASGVPSRFSGSGSGTEFTLTISDLESDDAATYYCAGGFPGLDTVAAFGGGTEAVVT
notes: V regions on human Ig constant parts; also called AB137_4
Turning to B6, in assay [1], the “Functional assay Cross-linked” value was determined as 2.57 abs. corr and the “Functional assay IL-8” value is 0.559 abs. corr. Moreover, the “Cellular binding assay [RFU]” value in assay [2] was 0 RFU. For the same molecule, in assay [3], the “ELISA [abs. corr.]” value amounted to 0.687 abs. corr.

B7: P018.S.13.A.G04 (antibody, V domains shown)
VH: QSLEESGGRLVTPGTPLTLTCTASGFSLSSYDMSWVRQAPGKGLEYIGYISSSGNTYYASWAKSRFTISKTSTTVDLKITSPTTEDTATYFCAREGDYWDFNLWGPGTLVTVSS
VL: AQVLTQTPSSVSAAVGGTVTINCQASQSISNLLAWYQQKPGQRPRLLIYRASTLASGVPSRFKGSGSGTEFTLTISDLESEDAATYYCAGGFPGLDTGATFGGGTEAVVT
notes: V regions on human Ig constant parts; also called AB137_8
For the molecule B7, in assay [1], the “Functional assay Cross-linked” value came out at 1.8 abs. corr and the “Functional assay IL-8” value is -0.179 abs. corr. The “Cellular binding assay [RFU]” value in assay [2] stood at 1 RFU. The “ELISA [abs. corr.]” value in assay [3] was 0.577 abs. corr.

B8: P018.S.13.A.G04 (antibody, V domains shown)
VH: QSLEESGGRLVTPGTPLTLTCTASGFSLSSYDMSWVRQAPGKGLEYIGYISSSGNTYYASWAKSRFTISKTSTTVDLKITSPTTEDTATYFCAREGDYWDFNLWGPGTLVTVSS
VL: AQVLTQTPSSVSAAVGGTVTINCQASQSISNLLAWYQQKPGQRPRLLIYRASTLASGVPSRFKGSGSGTEFTLTISDLESEDAATYYCAGGFPGLDTGATFGGGTEAVVT
On to B8, for which the “EC 50 [ng/mL] of agonistic function” value in the assay with human 4-1BB (CD137) is 255000 ng/mL.

B9: P018.S.13.A.G03 (antibody, V domains shown)
VH: QSLEESGGRLVTPGTPLTLTCTASGFSLSSYDVSWVRQAPGKGLEYIGFIGSDGSAHYATWVKGRFTISKTSTTVDLKITSPTTEDTATYFCARDWNDYWAHDLWGPGTLVTVSS
VL: AQVLTQTTSPVSAAVGGTVTINCQASQIVTSKSALSWYQQKPGQPPRLLIYKASTLASGVPSRFSGSGSGTQFTLTISDLESDDAATYYCAGGYYNSGDLNPFGGGTEVVVK
Regarding B9, the “EC 50 [ng/mL] of agonistic function” value with human 4-1BB (CD137) is 4780 ng/mL.

B10: P018.S.08.A.A04 (antibody, V domains shown)
VH: QSVEESGGRLVTPGTPLTLTCTVSGFSLSSYAVSWVRQAPGKGLEWIGVIWNNGATHYATWAKGRFTISKASTTVDLKVTSPTTEDTATYFCARSANDAWSTYSDLWGQGTLVTVSS
VL: DIVMTQTPASVEAAVGGTVTIKCQASQTITNYLSWYQQKPGQPPKLLIYKASTLTSGVSSRFKGSGSGTEFTLTISDLESDDAATYYCQNYYYGSSSGYGFVFGGGTEVVVK
In the case of B10, the “EC 50 [ng/mL] of agonistic function” value with human 4-1BB (CD137) is 5150 ng/mL.

B11: P018.S.08.A.E03 (antibody, V domains shown)
VH: QSVEESGGRLVTPGTPLTLTCTVSGFSLTYYAVTWVRQPPGKGLEWIGVIYDNGATAFATWAKGRFTMSKNSTTVALKVTSPTTEDTATYFCARSANNAWSTYSNLWGQGTLVTVSS
VL: DIVMTQTPSSVSAAVGGTVTINCQASEDISSYLSWYQQKLGQPPKLLIYKASTLESGVPSRFKGSGSGTEYTLTISDLESDDAATYYCQSYYSGSISGYGFVFGGGTGVVVK
notes: V regions on human Ig constant parts; also called AB137_2
On to B11, for which, in assay [1], the “Functional assay Cross-linked” value turned out to be 2.02 abs. corr and the “Functional assay IL-8” value was -0.304 abs. corr. In addition, the “Cellular binding assay [RFU]” value in assay [2] amounted to 9 RFU. Further, in assay [3], the “ELISA [abs. corr.]” value came to 3.05 abs. corr.

B12: P018.S.08.A.E03 (antibody, V domains shown)
VH: QSVEESGGRLVTPGTPLTLTCTVSGFSLTYYAVTWVRQPPGKGLEWIGVIYDNGATAFATWAKGRFTMSKNSTTVALKVTSPTTEDTATYFCARSANNAWSTYSNLWGQGTLVTVSS
VL: DIVMTQTPSSVSAAVGGTVTINCQASEDISSYLSWYQQKLGQPPKLLIYKASTLESGVPSRFKGSGSGTEYTLTISDLESDDAATYYCQSYYSGSISGYGFVFGGGTGVVVK
On to B12, for which the “EC 50 [ng/mL] of agonistic function” value in the assay with human 4-1BB (CD137) came to 4960 ng/mL.

B13: P018.S.14.A.D06 (antibody, V domains shown)
VH: QSVEESGGRLVTPGTPLTLTCTVSGFSLSTYAMIWVRQAPGKGLEWIGVVYDNGYISHATWVKGRFTISKTSTTVGLEITSPTTEDTATYFCARSADGSWSTYFNLWGQGTLVTVSS
VL: DIVMTQTPASVEAAVGGTVTIKCQASESISNYLAWYQQKPGQPPKLLIYKASTLASGVSSRFKGSGSGTEFTLTISDLESADAATYYCQTNYCCSSSDNGFAFGGGTEVVVK
With B13, in the assay with human 4-1BB (CD137), the “EC 50 [ng/mL] of agonistic function” value came out at 10200 ng/mL.
